The text below walks through data of ChEMBL document CHEMBL1145552, “Substrate specificity and diastereoselectivity of strictosidine glucosidase, a key enzyme in monoterpene indole alkaloid biosynthesis” (Bioorg Med Chem Lett, 2008).

The target in series [1] is T1, Strictosidine beta-glucosidase (Catharanthus roseus) (UniProt Q9M7N7).
T1 sequence (whole entry): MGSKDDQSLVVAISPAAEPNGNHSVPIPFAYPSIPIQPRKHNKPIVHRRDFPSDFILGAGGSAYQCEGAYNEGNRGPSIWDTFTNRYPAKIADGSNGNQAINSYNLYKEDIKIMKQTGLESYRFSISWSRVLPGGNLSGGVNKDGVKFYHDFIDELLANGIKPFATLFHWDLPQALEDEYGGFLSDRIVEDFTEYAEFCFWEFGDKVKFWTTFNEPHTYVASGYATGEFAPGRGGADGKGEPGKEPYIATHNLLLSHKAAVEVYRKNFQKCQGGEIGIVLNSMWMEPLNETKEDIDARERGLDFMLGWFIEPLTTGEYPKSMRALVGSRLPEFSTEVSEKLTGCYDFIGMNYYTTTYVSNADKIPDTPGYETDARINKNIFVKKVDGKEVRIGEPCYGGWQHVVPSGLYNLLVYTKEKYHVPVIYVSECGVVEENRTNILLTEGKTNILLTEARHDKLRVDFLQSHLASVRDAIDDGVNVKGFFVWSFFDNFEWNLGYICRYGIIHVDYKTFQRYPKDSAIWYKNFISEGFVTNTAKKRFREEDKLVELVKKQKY
The experiment in a line: Ratio of relative Vmax to K0.5 of Catharanthus roseus strictosidine glucosidase.

Substrate in series [2]: C=C[C@H]1[C@H](O[C@@H]2O[C@H](CO)[C@@H](O)[C@H](O)[C@H]2O)OC=C(C(=O)OC)[C@H]1C[C@@H]1NCCc2c1[nH]c1cccc(C)c21
The experiment in a line: (§1) Activity of Catharanthus roseus strictosidine glucosidase.

Substrate in series [3]: C=C[C@H]1[C@H](O[C@@H]2O[C@H](CO)[C@@H](O)[C@H](O)[C@H]2O)OC=C(C(=O)OC)[C@H]1C[C@@H]1NCCc2c1[nH]c1ccccc21
The description is as §1.

Substrate in series [4]: C=C[C@H]1[C@H](O[C@@H]2O[C@H](CO)[C@@H](O)[C@H](O)[C@H]2O)OC=C(C(=O)OC)[C@H]1C[C@@H]1NCCc2c1[nH]c1ccc(C)cc21
The series is described as §1.

Substrate in series [5]: C=C[C@H]1[C@H](O[C@@H]2O[C@H](CO)[C@@H](O)[C@H](O)[C@H]2O)OC=C(C(=O)OC)[C@H]1C[C@@H]1NCCc2c1[nH]c1ccc(OC)cc21
The series is described as §1.

Substrate in series [6]: C=C[C@H]1[C@H](O[C@@H]2O[C@H](CO)[C@@H](O)[C@H](O)[C@H]2O)OC=C(C(=O)OC)[C@H]1C[C@@H]1NCCc2c1[nH]c1c(C)cccc21
The description is as §1.

Substrate in series [7]: C=C[C@H]1[C@H](O[C@@H]2O[C@H](CO)[C@@H](O)[C@H](O)[C@H]2O)OC=C(C(=O)OC)[C@H]1C[C@@H]1NCCc2c1[nH]c1cc(F)ccc21
The description is as §1.

Substrate in series [8]: C=C[C@H]1[C@H](O[C@@H]2O[C@H](CO)[C@@H](O)[C@H](O)[C@H]2O)OC=C(C(=O)OC)[C@H]1C[C@@H]1NCCc2c1[nH]c1cc(OC)ccc21
Described as §1.

Substrate in series [9]: C=C[C@H]1[C@H](O[C@@H]2O[C@H](CO)[C@@H](O)[C@H](O)[C@H]2O)OC=C(C(=O)OC)[C@H]1C[C@@H]1NCCc2c1[nH]c1cc(C)ccc21
The description is as §1.

Substrate in series [10]: C=C[C@H]1[C@H](O[C@@H]2O[C@H](CO)[C@@H](O)[C@H](O)[C@H]2O)OC=C(C(=O)OC)[C@H]1C[C@@H]1NCCc2c1[nH]c1ccc(F)cc21
The description is as §1.

`C=C[C@H]1[C@H](O[C@@H]2O[C@H](CO)[C@@H](O)[C@H](O)[C@H]2O)OC=C(C(=O)OC)[C@H]1C[C@@H]1NCCc2c1[nH]c1cc(C)ccc21`: the Ratio in series [1] was 0.5 min⁻¹.
On to `C=C[C@H]1[C@H](O[C@@H]2O[C@H](CO)[C@@H](O)[C@H](O)[C@H]2O)OC=C(C(=O)OC)[C@H]1C[C@@H]1NCCc2c1[nH]c1ccc(F)cc21`, for which, in series [1], the Ratio was determined as 0.7 min⁻¹.
`C=C[C@H]1[C@H](O[C@@H]2O[C@H](CO)[C@@H](O)[C@H](O)[C@H]2O)OC=C(C(=O)OC)[C@H]1C[C@@H]1NCCc2c1[nH]c1cccc(C)c21`: the Ratio in series [1] came to 0.2 min⁻¹.
For `C=C[C@H]1[C@H](O[C@@H]2O[C@H](CO)[C@@H](O)[C@H](O)[C@H]2O)OC=C(C(=O)OC)[C@H]1C[C@@H]1NCCc2c1[nH]c1ccc(C)cc21`, the Ratio in [1] turned out to be 0.6 min⁻¹.
Consider `C=C[C@H]1[C@H](O[C@@H]2O[C@H](CO)[C@@H](O)[C@H](O)[C@H]2O)OC=C(C(=O)OC)[C@H]1C[C@@H]1NCCc2c1[nH]c1cc(F)ccc21`, for which, in [1], the Ratio was found to be 0.7 min⁻¹.
With `C=C[C@H]1[C@H](O[C@@H]2O[C@H](CO)[C@@H](O)[C@H](O)[C@H]2O)OC=C(C(=O)OC)[C@H]1C[C@@H]1NCCc2c1[nH]c1cc(OC)ccc21`, in series [1], the Ratio stood at 0.2 min⁻¹.
For the molecule `C=C[C@H]1[C@H](O[C@@H]2O[C@H](CO)[C@@H](O)[C@H](O)[C@H]2O)OC=C(C(=O)OC)[C@H]1C[C@@H]1NCCc2c1[nH]c1ccc(OC)cc21`, the Ratio in series [1] came out at 0.3 min⁻¹.
Turning to `C=C[C@H]1[C@H](O[C@@H]2O[C@H](CO)[C@@H](O)[C@H](O)[C@H]2O)OC=C(C(=O)OC)[C@H]1C[C@@H]1NCCc2c1[nH]c1c(C)cccc21`, the Ratio in [1] was determined as 0.3 min⁻¹.
For the molecule `C=C[C@H]1[C@H](O[C@@H]2O[C@H](CO)[C@@H](O)[C@H](O)[C@H]2O)OC=C(C(=O)OC)[C@H]1C[C@@H]1NCCc2c1[nH]c1ccccc21`, the Ratio in [1] is 1 min⁻¹.

B1: Strictosidine beta-glucosidase (Catharanthus roseus), Q9M7N7 (protein)
chain: MGSKDDQSLVVAISPAAEPNGNHSVPIPFAYPSIPIQPRKHNKPIVHRRDFPSDFILGAGGSAYQCEGAYNEGNRGPSIWDTFTNRYPAKIADGSNGNQAINSYNLYKEDIKIMKQTGLESYRFSISWSRVLPGGNLSGGVNKDGVKFYHDFIDELLANGIKPFATLFHWDLPQALEDEYGGFLSDRIVEDFTEYAEFCFWEFGDKVKFWTTFNEPHTYVASGYATGEFAPGRGGADGKGEPGKEPYIATHNLLLSHKAAVEVYRKNFQKCQGGEIGIVLNSMWMEPLNETKEDIDARERGLDFMLGWFIEPLTTGEYPKSMRALVGSRLPEFSTEVSEKLTGCYDFIGMNYYTTTYVSNADKIPDTPGYETDARINKNIFVKKVDGKEVRIGEPCYGGWQHVVPSGLYNLLVYTKEKYHVPVIYVSECGVVEENRTNILLTEGKTNILLTEARHDKLRVDFLQSHLASVRDAIDDGVNVKGFFVWSFFDNFEWNLGYICRYGIIHVDYKTFQRYPKDSAIWYKNFISEGFVTNTAKKRFREEDKLVELVKKQKY
As a reminder, the Km is the substrate concentration at which the rate is half of its maximum. Usually Vmax stands for the rate approached at saturating substrate. On to B1, for which the Km was 220 µM in series [2]; 220 µM in [3]; 71 µM in [4]; 370 µM in [5]; 140 µM in series [6]; 120 µM in series [7]. In addition, the results for the Km in series [8], in series [9] and in series [10] were 430 µM, 92 µM and 150 µM, respectively. The maximal velocity (Vmax) in series [2] was 0.018 mM/min; in [3], 0.078 mM/min; in series [4] it was 0.016 mM/min; in [5], 0.035 mM/min; in [6], 0.016 mM/min; in series [7] it was 0.032 mM/min. Further, the Vmax in series [8] came to 0.037 mM/min; in series [9] it was 0.017 mM/min; in series [10], 0.038 mM/min.
